B1: 375_E01 (antibody, V domains shown)
VH: EVQLLESGGGLVQPGGSLRLSCAASGFTFSSYSMNWVRQAPGKGLEWVSGINYNSGYKSYADSVKGRFTISRDNSKNTLYLQMNSLRAEDTAVYYCARSANWHDTALDYWGQGTLVTVSS
VL: DIQMTQSPSSLSASVGDRVTITCRASQSILTYLNWYQQKPGKAPKLVIYAATSRASGVPSRFSGSGSGTDFTLTISSLQPEDFATYYCQQSDDSPLTFGGGTKVEIK
B2: 368_D10 (antibody, V domains shown)
VH: B1 VH with S30D, S33G, S49A, K58T, N101T
VL: B1 VL with T31S, D92Y
B3: 376_B04 (antibody, V domains shown)
VH: B1 VH with S30D, S33G, N35H, S49A, G50S, S55G, K58T, S59G
VL: B1 VL with L30V, T31S, L33V, D92Y, S94T
B4: 367_H07 (antibody, V domains shown)
VH: B1 VH with S49A, G50N, S55G, K58T, S59G, N101T
VL: B1 VL with T31S, L33V, A51T, D92Y, D93E, S94N
B5: 367_C03 (antibody, V domains shown)
VH: B1 VH with S49A, G50N, S55G, K58T, S59G, N101T
VL: B1 VL with T31S, L33V, A51T, D92Y, D93E, S94N
B6: 376_A12 (antibody, V domains shown)
VH: B1 VH with S49A, G50N, S59G
VL: B1 VL with T31S, L33V, D92Y, S94T
B7: 376_B11 (antibody, V domains shown)
VH: B1 VH with S55G, K58T
VL: B1 VL with T31S, L33V, D92Y, S94L
B8: 376_C06 (antibody, V domains shown)
VH: B1 VH with S33G, S49A, S55G, K58T, N101T
VL: B1 VL with T31S, D92Y
B9: 375_E07 (antibody, V domains shown)
VH: B1 VH with S31D, S49A, S59G
VL: B1 VL with L30V, V47L, A50V, A51V, S53N, A55E, D92Y, D93E, S94T
B10: 375_H12 (antibody, V domains shown)
VH: B1 VH with S33G, S49A, S55G, S59G
VL: B1 VL with V47L, A50Y, A51V, S53N, A55Q, D92Y, D93S, S94I
B11: 376_A04 (antibody, V domains shown)
VH: B1 VH with S30D, G50N, S55G, K58T
VL: B1 VL with L30V, D92Y
B12: 376_E03 (antibody, V domains shown)
VH: B1 VH with S33G, S49A, G50N, S55G, K58T, S59G
VL: B1 VL with T31S, L33V, R54L, D92Y, S94L
B13: 376_D05 (antibody, V domains shown)
VH: B1 VH with G50N, S55G, S59G
VL: B1 VL with L30V, T31S, L33V, V47L, R54L, D92Y, S94T
B14: 376_C01 (antibody, V domains shown)
VH: B1 VH with S30D, S49A, S55G, K58T
VL: B1 VL with V47L, R54L, D92Y, S94N
B15: 376_G09 (antibody, V domains shown)
VH: B1 VH with S30D, S59G
VL: B1 VL with L30S, T31Y, V47L, A51V, D92Y, S94N
B16: 369_C10 (antibody, V domains shown)
VH: B1 VH with S49A, G50N, S55G, K58T, N101T
VL: B1 VL with L30V, V47L, R54L, A55H, D93S, S94L
B17: 376_B05 (antibody, V domains shown)
VH: B1 VH with S49A, G50N, S55G, K58T, S59G
VL: B1 VL with L30I, T31S, L33V, V47L, D92Y, D93E, S94L
B18: 370_G12 (antibody, V domains shown)
VH: B1 VH with S49A, S55G, S59G, N101T
VL: B1 VL with L30I, V47L, R54L, D93E
B19: 376_A06 (antibody, V domains shown)
VH: B1 VH with S30D, K58T, N101T
VL: B1 VL with T31S, A50Y, A51V, T52S, S53N, D92Y, S94N
B20: 376_C02 (antibody, V domains shown)
VH: B1 VH with S30D, S33G, K58T
VL: B1 VL with L30V, T31S, A51V, D92Y
B21: 368_C01 (antibody, V domains shown)
VH: B1 VH with S30D, S33G, S49A, S55G, K58T, S59G, N101T
VL: B1 VL with L30I, V47L, D92Y
B22: 376_A10 (antibody, V domains shown)
VH: B1 VH with S31D, S33G, G50N, S59G
VL: B1 VL with T31S, V47L, D92Y, D93E
B23: 376_G08 (antibody, V domains shown)
VH: B1 VH with S30D, S33G, S49A, G50N, S55G, K58T
VL: B1 VL with T31S, L33V, D92Y, S94T
B24: 374_C08 (antibody, V domains shown)
VH: B1 VH with S30D, S33G, N101T
VL: B1 VL with T31S, L33V, V47L, A51V, D92Y
B25: 376_H09 (antibody, V domains shown)
VH: B1 VH with S31D, S49A, G50N, S55G, K58T, S59G
VL: B1 VL with L30I, A50Y, A51V, T52S, S53N, R54L, A55P, D92Y
B26: 376_C12 (antibody, V domains shown)
VH: B1 VH with S49A, S55G, K58T, S59G
VL: B1 VL with L33V, V47L, D92Y
B27: 365_G12 (antibody, V domains shown)
VH: B1 VH with S33G, S49A, K58T, N101T
VL: B1 VL with T31S, L33V, D92Y, D93S, S94N
B28: 376_E08 (antibody, V domains shown)
VH: B1 VH with S31D, S33G, S49A, S55G, K58T
VL: B1 VL with L30V, T31S, L33V, D92Y
B29: 376_D11 (antibody, V domains shown)
VH: B1 VH with S33G, S49A, G50N, S55G, K58T, S59G
VL: B1 VL with T31S, D92Y, D93N, S94N
B30: 376_B09 (antibody, V domains shown)
VH: B1 VH with S30D, S49A, G50N, S59G
VL: B1 VL with L33V, D92Y, S94L
B31: 365_E02 (antibody, V domains shown)
VH: B1 VH with S49A, G50N, S55G, K58T, R98K, N101T, A106H
VL: B1 VL with L30I, T31S, V47L, D92Y, D93E, S94N
B32: 376_H10 (antibody, V domains shown)
VH: B1 VH with S30D
VL: B1 VL with A55H, D92Y

Residue numbers refer to the chain shown, from its start.

For this experiment, the target named is human Fc (human). Description: ELISA; negative control.
In turn, B1 yielded an optical density of 0.164 OD. Next, B2: 0.245 OD; B3: 0.293 OD. Next, B4: 0.297 OD; B5: 0.275 OD.

B6 gave an optical density of 0.22 OD. Next, B7: 0.261 OD.

For B8, the optical density was 0.29 OD.

B9: the optical density was found to be 0.158 OD. Next, B10: 0.188 OD; B11: 0.245 OD. B12: the optical density was determined as 0.234 OD. Next, B13: 0.215 OD; B14: 0.324 OD. Next, B15: 0.23 OD; B16: 0.32 OD. The molecule B17 came in with an optical density of 0.242 OD. The figure for B18 is 0.418 OD.

For B19, the optical density was found to be 0.262 OD. As to B20, the optical density was found to be 0.222 OD.

For the molecule B21, the optical density is 0.41 OD.

As to B22, the optical density amounted to 0.279 OD.

Molecule B23 gave an optical density of 0.22 OD. Next, B24: 0.178 OD. B25 showed an optical density of 0.281 OD.

In turn, B26 displayed an optical density of 0.438 OD. In turn, B27 came in with an optical density of 0.556 OD. B28 came in with an optical density of 0.332 OD. B29 registered an optical density of 0.267 OD.

The molecule B30 gave an optical density of 0.227 OD. Turning to B31, the optical density was 0.357 OD. Turning to B32, the optical density turned out to be 0.318 OD.
